These results are taken from the nanobody polyreactivity screen of Harvey et al. (2022).

This series can be described thus: yeast display, Sf9 membrane polyspecificity reagent, FACS + sequencing; frameworks hold sequencing errors. In short, it runs like this: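 Using colony PCR, genes from sorted yeast display clones were amplified, then sequenced on MiSeq at 2 × 250 and filtered by CDR length. The clones had been stained with 10% biotinylated, detergent-solubilized Sf9 membrane reagent for 1 hour at 4 °C and sorted by FACS into low and high (top ~1%) gates on anti-HA and streptavidin fluorescence. Polyreactivity labels come from the gate of origin.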
Regarding “QVQLVESGGGLVQAGGSLSLSCAASGRTFSSYVMGWYRPAPGNERELVAAITQSSSRTYYADSVKGRFTISRDNAKNTVYLQMNSLKRVYTAVYYCNAALYPYLQYYYWGLGTQVTVSS”, the “polyreactivity (PSR sort gate)” value is “low polyreactivity”.
As to “QVQLVESGGGLVQAGGSLSLSCAASGRTLIRNAMGWYRQAPGKGRELVAAINSGGITNYADSVKGRFTISRDNAKNTVYLQMNSLKPEDTAVYYCNDRQVLYGLYLRAYPYEYWGQGTQVTVSS”, the “polyreactivity (PSR sort gate)” value was “low polyreactivity”.
As to “QVQLVESGGGLVQAGGSLSLSCAASGSIFWSYAMGWYRQAPGKERELVAAITTDGGTNYADSVKGRFTISRDNAKNTVYLQMNSLKPVDTAVYYCAADTDPKPRIDYTLRMDYWGHGTQVTVSS”, the “polyreactivity (PSR sort gate)” value is recorded as “low polyreactivity”.
Take “QVQLVESGGGLVQAGGSLSLSCAASGSIFYHNAMGWYRQAPGKERELVAAITGSGGSTYYADSVKGRFTISRDNAKNTVYLQMNSLKPEDTAVYYCAAVQLYQKHQITYVAHEYWGQGTQVTVSS”: the “polyreactivity (PSR sort gate)” value was “low polyreactivity”.
On to “QVQLVESGGGLVQAGGSLSLSCAASGSIFYSNSMGWYRQAPGKERELVAAINWRGGSTYYADSVKGRFTISRDNAKNSVYLQMNSLKPEDTAVDYCAAVYPVHLRGQYPIPKYNYWGQGTQVTVSS”, for which the “polyreactivity (PSR sort gate)” value is “low polyreactivity”.
The same measure for “QVQLVESGGGLVQAGGSLSLSCAASGSIFYVYAMGWYRQAPGKERELVASINKSGGSTYYADSVKGRFTISRDNAKNTVYLQMNSLKPEDTAVYYCAARYGWPRVGFQYPAHVGFDYWGQGTQVTVSS”: “low polyreactivity”; for “QVQLVESGGGLVQAGGSLSLSCAASGSSFSLYTMGWYRQAPGKERDLVASISQSGGSTYYADSVKGRFTISRDNAKNTVYLQMNSLKPEDTAVYFWNAKGRSGTLTLYYYWGQGTQVTVSS”: “low polyreactivity”; for “QVQLVESGGGLVQAGGSLSLSCAASGSTFAFNAMGWYRQAPGKERELVAAIYSDGSTDYADSVKGRFTISRDNAKNTVYLQMNSLKPEDTAVYYCAADWGWRYVLPVGWFRYGYWGQGTQVTVSS”: “low polyreactivity”.
On to “QVQLVESGGGLVQAGGSLSLSCAASGSTFDYYAMGWYRQAPGKERELVADITYSGGSTYYADSVKGRFTISRDNAKNTVYLQMNSLKPEDTAVYYCNAYYTVYTRYDYWGQGTQVTVSS”, for which the “polyreactivity (PSR sort gate)” value is “high polyreactivity”.
For “QVQLVESGGGLVQAGGSLSLSCAASGSTFLKYTMGWYRQAPWKERELVAAISKSGGSTYYADSVKGRFTISRDNAKNTVYLQMNSLKPEDTAVYYCAKGRYWVYSYGYGYWGQGTQVTVSS”, the “polyreactivity (PSR sort gate)” value is recorded as “high polyreactivity”.
Consider “QVQLVESGGGLVQAGGSLSLSCAASGSTFNRNAMGWDRQAPGKEREFVAAITWSGGSTYYADSVKGRFTISRDNAKNTVYLQMNSLKPEDTAVYYCNADRFSSRHSYDYWGQGTQVTVSS”, for which the “polyreactivity (PSR sort gate)” value is listed as “low polyreactivity”.
The same measure for “QVQLVESGGGLVQAGGSLSLSCAASGSTFVYNAMGWYRKAPGKERELVAAISSGGSTNYADSVKGRFTISRDNAKNTVYFQMKSLKPEDNRSEYSRYVVYDYWGQGTQVTVSS”: “low polyreactivity”; for “QVQLVESGGGLVQAGGSLSLSCAASGYTFPYYTMGWYRQAPGKERELVATITRRGDSTYYADSVKGRFTISRDNAKNTVYLQMNSLKPEDTAVYYCNTASYGRHQFRKSSKMDYWGQGTQVTVSS”: “high polyreactivity”; for “QVQLVESGGGLVQAGGSLSLSCAATGFTFRPYAMAWYRQATGKERELVAAITSGDSTNYADSVKGRFTISRDNAKKSVYLQMISVKAEDTAVFYCAADSTGRPSVSYDYWGQGTQVTVSS”: “low polyreactivity”.
In the case of “QVQLVESGGGLVQAGGSLSLSCAATGINYGDYAMGWYRQAPGKERELVAAISSDTSTNYADSVKGRFTISRDNAKNTVYLQMNSLKPEDTAVYECAAEGSYYGWYQGFDYWGQGTQVTVSS”, the “polyreactivity (PSR sort gate)” value is “low polyreactivity”.
As for “QVQLVESGGGLVQAGGSLSLSCAATGRIFDGNVMGWYRQAPGKERELVAAISSGDSTNYADSVKGRFTISRDNAKNTVYLQRNSLKTEDTAVYDCNRTPNSGGYDRFYGGDFYYWGQGTQVTVSS”, the “polyreactivity (PSR sort gate)” value is “low polyreactivity”.
Take “QVQLVESGGGLVQAGGSLSLSCAATGRTFVKNAMGWYRQAPGKERELVASISRSGGSTYYADSVKGRFTISRDTAKNTVYLQMNSLKTEDTAVYYCNAAVYGGYSRSRYGYWGQGTQVTVSS”: the “polyreactivity (PSR sort gate)” value is on record as “high polyreactivity”.
As to “QVQLVESGGGLVQAGGSLSLSCAATGSTFSLYAMGWYIQAPGKERELVAAISSSGGSTYYADSVKGRFTISRDNAKNTVYLQMNSLKPEDTAVYYCAAYRVGSYDYWGQGTQVTVSS”, the “polyreactivity (PSR sort gate)” value is “high polyreactivity”.
On to “QVQLVESGGGLVQAGGSLSLSCAAYGFTFERNGMGWYRQAPGKERELVAAISIRGGSTYYADSVKGRFTMSRDNAKNTVSLQMNSLKPEDTAVYYCAVVARRAFDYWGQGTQVTVSS”, for which the “polyreactivity (PSR sort gate)” value is recorded as “high polyreactivity”.
With “QVQLVESGGGLVQAGGSLSLSCAAYGRTFTYYAMGWYRPAPGKERELVAVISSGGRTYYADSVKGRFTISRDNAKITVSFQMNSLKPDDKGVYYCNAASPRYLVEYDFWGQGTQVTVSS”, the “polyreactivity (PSR sort gate)” value is listed as “high polyreactivity”.
As to “QVQLVESGGGLVQAGGSLSLSCAAYGRTSPIYAMGWYRQAPGKERELVASITRCTRTNYADSVKGRFTISRDNAKNTVYLQMNSLKPEDTAVYYCAAVSYSYSLNAYDYWGQGTQVTVSS”, the “polyreactivity (PSR sort gate)” value is given as “low polyreactivity”.
For the sequence “QVQLVESGGGLVQAGGSLSLSCAAYGSTFDPNDMGWYRQAPGKERELVAVIDSGDGTTYYADSVKGRFTISRDNAKNTVYLQMNRLKPEDTAVYYCAVDESTSYYDDHEDYWGQGTQVTVSS”, the “polyreactivity (PSR sort gate)” value is given as “low polyreactivity”.
The same measure for “QVQLVESGGGLVQAGGSLSLSCAAYGSTFLRNAMGWYRQAPGKKGSWVATISYDGDSTYYADSVKGRFTISRDNAKNTVYLQMYSLKPEDTAVYYCAASYSLTFWDKDDYWGQGTQVTVSS”: “low polyreactivity”; for “QVQLVESGGGLVQAGGSLSLSCADSAGTFKTNAKGWYRQAPGKERELVAAITGSGTSTYYADSVKGRFTSSRDNAKNTVYFQMNSLKPEDTAVYYCAADKLYQPGIGDDYWGQGTQVTLSS”: “low polyreactivity”.
Regarding “QVQLVESGGGLVQAGGSLSLSCASSGSIFVRNVMGWYRQAPWKERELVATIRTRGGSTSYADSVKGRFTISRDNAKNTVYLQMNSLTPEDTAVYYCNARLSYRSAWYYGGDRYDYWGQGTQVTVSS”, the “polyreactivity (PSR sort gate)” value is recorded as “high polyreactivity”.
Consider “QVQLVESGGGLVQAGGSLSLSFAASGRTFGYYDMGRYRQAPGKEREFVAAITWSGGNTYADSVKGRFTISRDNAKNTVYLQMNSLKPEDTAVYYCNAVVRAYYTSIWVPRYDYWGQATQVTVSS”, for which the “polyreactivity (PSR sort gate)” value is reported as “high polyreactivity”.
For “QVQLVESGGGLVQAGGSLSLSSAATGNIFRNNAMGWYRQAPGKERELGAAISYSGGRTFYADSVKGRFTISRDNAKNTVYLQMNSLKPEDTAVYYCAVTYGRNADDYEYWGQGTQVTVSS”, the “polyreactivity (PSR sort gate)” value was “high polyreactivity”.
The same measure for “QVQLVESGGGLVQAGGSLSLTCAASGRIFSYYAMGWYRQAPGKERELVAGISRGTSTYYADSVKGRFTISRDNAKNTVYLQMNSLKPEDTAVYYCAADYFSYYSPYRYGYWGQGTQVTVSS”: “high polyreactivity”.
As for “QVQLVESGGGLVQAGGSNRLSCAASGFTFYRNVMGWYRQAPGKERELVAARTWNGGTTYYADSEKGRFTISRDTAKSSVYLQMDSLQREDTAVYFCAAASRHTGSYRFYYWGQGTQVTVSS”, the “polyreactivity (PSR sort gate)” value is “high polyreactivity”.
For the sequence “QVQLVESGGGLVQAGGSQRLSCAASGRTFRGNAMGWYRQAPGKERELVATINSGGSTNYADSVKGRFTISRDKAKNTVYLQMNSLIPEDTAVYYCAAVKYFRWKYNYWGQGTQVTVSS”, the “polyreactivity (PSR sort gate)” value is reported as “high polyreactivity”.
With “QVQLVESGGGLVQAGGSRRLSCAASGFTFSQYTRGWYRQAPGKERELVAAISSGSSTYYADSVKGRFTISRDNAKNTVYLQMNSLKPEDTAVYYCAARVGWYTWGYYWGQGTQVTVSS”, the “polyreactivity (PSR sort gate)” value was “high polyreactivity”.
The same measure for “QVQLVESGGGLVQAGGSRRLSCAASGFTFSSYAMGWYRQAPGKERELVASISWRGGITYYADSVKGRFTISRDNAKNTVYLQMNSLKPEDTAVYYCAAVAFFRPKFYYWGQGTQVTVSS”: “high polyreactivity”; for “QVQLVESGGGLVQAGGSRRLSCAASGLIFYYYAMGWYRQAPGKERELVAAISGSGGSTYYADSVKGRFTISRDNAKNTVYLQMNSLKPEDTAVYYCNKLSWRKYLGYEYWGQGTQVTVSS”: “high polyreactivity”; for “QVQLVESGGGLVQAGGSRRLSCAASGRIFRIYAMGWYRQAPGKERELVAAITWSGGSTYYADSVKGRFPISRDNAKNTVYLQMNSLKPEDTAVYYGAAKARSNKYNYWGQGTQVTVSS”: “high polyreactivity”.
The same measure for “QVQLVESGGGLVQAGGSRRLSCAASGRIFSQNTRGCYRQAPAKERELVAVISWRCGRTSYSDSVKGRFTISRDNSKNTVFLKMKSLKQEDTAVYYCAASAKLHYYRTYRYNYWGQGTQVTVSS”: “high polyreactivity”; for “QVQLVESGGGLVQAGGSRRLSCAASGRTFVGTAMGWSRQAPGKERELVAAMSGDGSTNYADSVKGRFTISRDNAKNTVYLQMNSLKPEDTAVYYCAADGVTRYYQRTYTRYGYWGQGTQVTVSS”: “low polyreactivity”; for “QVQLVESGGGLVQAGGSRRLSCAASGSIFTGYAMGWYRQSPGKERELVAAINSNGGRTYYADSVKGRFTISRDNAKNTVYLQMNSLKPEDTAVYYCAADSGRGYRYKTFNWGRFYWGQGTQVTVSS”: “high polyreactivity”.
For “QVQLVESGGGLVQAGGSRRLSCAASGSTFEYNAMGWYRQAPGKERELVASSTNYADSVKGRFTISRDNAKNTVYLPMNSLKPEDTAVYYCAREQGVNRNHDYWGQGTQVTVSS”, the “polyreactivity (PSR sort gate)” value is listed as “low polyreactivity”.
The same measure for “QVQLVESGGGLVQAGGSRRLSCAASGSTFSSYAKGWYRQAPGQERELVAAISSSGSRTYYADSVKGRFTISRDNAKNTVYLQMNSLKPEDTAVYYCAADYYYNTKLDYWGQGSQVTVSS”: “high polyreactivity”; for “QVQLVESGGGLVQAGGSRRLSCAGSGRIFHYYAMGWYRPAPGTERELVAAISRTGSTYYADSVKGRFTISRDNAINTVYLQMNSLKPEDTAVYYCAADYWPQSNRWVYFRYGYWGQGTQVTVSS”: “high polyreactivity”.
